The results in this text go back to patent US20200223889A1 (Novo Nordisk, published 2020).

The target in assay [1] is T1, human melanocortin 4 receptor (human, UniProt P32245 1-332). Kind of assay: cell-based or functional assay.
For assay [2], the target named is human melanocortin 1 receptor (human, UniProt Q01726 1-317). Kind of assay: cell-based or functional assay.
Assay [3] deals with T1, human melanocortin 4 receptor. The assay is described as follows: competition with 125-NDP-α-MSH, BHK human MC4R membranes. The gist of the method: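 Competition binding used membranes from BHK cells stably expressing human MC4R with ¹²⁵I-NDP-α-MSH (apx. […] final), compound at 1 μM–0.001 nM. Incubation was 2 h at 25 °C in HEPES pH 7.0 buffer with CaCl₂, MgSO₄, EGTA, Tween 20 and 0.1% HSA or ovalbumin. Filter-bound radioactivity was fitted by non-linear regression.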

Positions of bridges follow the written chain, without caps; N, C: chain ends. Non-standard residues stand in square brackets, D forms with d. Cit = NC(=O)NCCC[C@H](N)C(=O)O; Api = NC1(C(=O)O)CCNCC1; Aib = CC(C)(N)C(=O)O

human melanocortin 1 receptor, sequence (Q01726 whole entry): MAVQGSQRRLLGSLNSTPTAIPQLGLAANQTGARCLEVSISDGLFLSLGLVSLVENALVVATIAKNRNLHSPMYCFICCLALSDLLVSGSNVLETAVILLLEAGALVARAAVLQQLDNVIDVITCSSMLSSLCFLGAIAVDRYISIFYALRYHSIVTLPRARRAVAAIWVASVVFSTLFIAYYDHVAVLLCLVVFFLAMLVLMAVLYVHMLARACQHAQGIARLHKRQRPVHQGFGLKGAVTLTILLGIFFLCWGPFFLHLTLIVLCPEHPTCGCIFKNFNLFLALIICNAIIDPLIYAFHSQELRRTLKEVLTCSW
T1 sequence (P32245 whole entry): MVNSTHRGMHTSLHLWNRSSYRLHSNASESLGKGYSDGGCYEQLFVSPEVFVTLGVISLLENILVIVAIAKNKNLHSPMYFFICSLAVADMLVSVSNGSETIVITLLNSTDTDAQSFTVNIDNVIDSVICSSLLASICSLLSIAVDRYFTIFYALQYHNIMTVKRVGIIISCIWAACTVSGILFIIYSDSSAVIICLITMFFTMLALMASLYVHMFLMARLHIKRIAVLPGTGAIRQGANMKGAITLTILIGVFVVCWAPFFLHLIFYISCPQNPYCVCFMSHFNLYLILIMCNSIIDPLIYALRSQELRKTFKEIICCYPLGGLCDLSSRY

B1: Chem. 49 (peptide)
peptide: cyclo(CH[dF]RWCH[dF]RW)
modifications: disulfide 1-6
SMILES: N=C(N)NCCC[C@@H]1NC(=O)[C@@H](Cc2ccccc2)NC(=O)[C@H](Cc2c[nH]cn2)NC(=O)[C@@H]2CSSC[C@H](NC(=O)[C@H](Cc3c[nH]c4ccccc34)NC1=O)C(=O)N[C@@H](Cc1c[nH]cn1)C(=O)N[C@H](Cc1ccccc1)C(=O)N[C@@H](CCCNC(=N)N)C(=O)N[C@@H](Cc1c[nH]c3ccccc13)C(=O)N2
notes: also called c[c[Cys-His-D-Phe-Arg-Trp-Cys]-His-D-Phe-Arg-Trp]
Turning to B1, the “MC4R cAMP EC50” value in assay [1] was 1.28 nM. In assay [2], the “MC1R cAMP EC50” value is above 5.5 nM. For the same molecule, the Ki in assay [3] turned out to be 3.92 nM.

B2: Chem. 39 (peptide)
peptide: cyclo(C[Aib]P[dF]RWC[Aib]P[dF]RW)
modifications: disulfide 1-7
SMILES: CC1(C)NC(=O)[C@@H]2CSSC[C@H](NC(=O)[C@H](Cc3c[nH]c4ccccc34)NC(=O)[C@H](CCCNC(=N)N)NC(=O)[C@@H](Cc3ccccc3)NC(=O)[C@@H]3CCCN3C1=O)C(=O)NC(C)(C)C(=O)N1CCC[C@H]1C(=O)N[C@H](Cc1ccccc1)C(=O)N[C@@H](CCCNC(=N)N)C(=O)N[C@@H](Cc1c[nH]c3ccccc13)C(=O)N2
notes: also called c[c[Cys-Aib-Pro-D-Phe-Arg-Trp-Cys]-Aib-Pro-D-Phe-Arg-Trp]
Turning to B2, the “MC4R cAMP EC50” value in assay [1] was determined as 1.54 nM. Further, the “MC1R cAMP EC50” value in assay [2] was determined as 56.4 nM. This molecule also displayed a Ki in assay [3] of 1.8 nM.

B3: Chem. 42 (peptide)
peptide: CAHFXWCAHFXW
modifications: D-Phe 4, 10; AGP 5, 11; disulphide Cys1-Cys7; head-to-tail amide Cys1-Trp12
notes: also called c[c[Cys-Ala-His-D-Phe-AGP-Trp-Cys]-Ala-His-D-Phe-AGP-Trp]
Take B3: the “MC4R cAMP EC50” value in assay [1] is above 1000 nM. The “MC1R cAMP EC50” value in assay [2] was above 100 nM. The Ki in assay [3] is 10000 nM.

B4: Chem. 47 (peptide)
peptide: cyclo(C[Api]H[dF]RWC[Api]H[dF]RW)
modifications: disulfide 1-7
SMILES: N=C(N)NCCC[C@@H]1NC(=O)[C@@H](Cc2ccccc2)NC(=O)[C@H](Cc2c[nH]cn2)NC(=O)C2(CCNCC2)NC(=O)[C@@H]2CSSC[C@H](NC(=O)[C@H](Cc3c[nH]c4ccccc34)NC1=O)C(=O)NC1(CCNCC1)C(=O)N[C@@H](Cc1c[nH]cn1)C(=O)N[C@H](Cc1ccccc1)C(=O)N[C@@H](CCCNC(=N)N)C(=O)N[C@@H](Cc1c[nH]c3ccccc13)C(=O)N2
notes: also called c[c[Cys-ACP-His-D-Phe-Arg-Trp-Cys]-ACP-His-D-Phe-Arg-Trp]
With B4, in assay [1], the “MC4R cAMP EC50” value was 0.12 nM. The “MC1R cAMP EC50” value in assay [2] was found to be 2.79 nM. In addition, affinity in assay [3] was put at a Ki of 0.72 nM.

B5: Chem. 48 (peptide)
peptide: cyclo(CAH[dF][Cit]WCAKKKW)
modifications: disulfide 1-7
SMILES: C[C@@H]1NC(=O)[C@@H]2CSSC[C@H](NC(=O)[C@H](Cc3c[nH]c4ccccc34)NC(=O)[C@H](CCCNC(N)=O)NC(=O)[C@@H](Cc3ccccc3)NC(=O)[C@H](Cc3c[nH]cn3)NC1=O)C(=O)N[C@@H](C)C(=O)N[C@@H](CCCCN)C(=O)N[C@@H](CCCCN)C(=O)N[C@@H](CCCCN)C(=O)N[C@@H](Cc1c[nH]c3ccccc13)C(=O)N2
notes: also called c[c[Cys-Ala-His-D-Phe-Cit-Trp-Cys]-Ala-Lys-Lys-Lys-Trp]
B5: the “MC4R cAMP EC50” value in assay [1] worked out at 0.06 nM. In addition, in assay [2], the “MC1R cAMP EC50” value was 9.14 nM. The molecule also displayed a Ki in assay [3] of 0.15 nM.

B6: Chem. 45 (peptide)
peptide: cyclo(CAH[dF][Cit]WCAEEEW)
modifications: disulfide 1-7
SMILES: C[C@@H]1NC(=O)[C@@H]2CSSC[C@H](NC(=O)[C@H](Cc3c[nH]c4ccccc34)NC(=O)[C@H](CCCNC(N)=O)NC(=O)[C@@H](Cc3ccccc3)NC(=O)[C@H](Cc3c[nH]cn3)NC1=O)C(=O)N[C@@H](C)C(=O)N[C@@H](CCC(=O)O)C(=O)N[C@@H](CCC(=O)O)C(=O)N[C@@H](CCC(=O)O)C(=O)N[C@@H](Cc1c[nH]c3ccccc13)C(=O)N2
notes: also called c[c[Cys-Ala-His-D-Phe-Cit-Trp-Cys]-Ala-Glu-Glu-Glu-Trp]
As to B6, the “MC4R cAMP EC50” value in assay [1] is 45.7 nM. In assay [2], the “MC1R cAMP EC50” value is above 100 nM. In addition, the Ki in assay [3] came to 1000 nM.

B7: Chem. 40 (peptide)
peptide: cyclo(C[Aib]H[dF]KWC[Aib]H[dF]KW)
modifications: disulfide 1-7
SMILES: CC1(C)NC(=O)[C@@H]2CSSC[C@H](NC(=O)[C@H](Cc3c[nH]c4ccccc34)NC(=O)[C@H](CCCCN)NC(=O)[C@@H](Cc3ccccc3)NC(=O)[C@H](Cc3c[nH]cn3)NC1=O)C(=O)NC(C)(C)C(=O)N[C@@H](Cc1c[nH]cn1)C(=O)N[C@H](Cc1ccccc1)C(=O)N[C@@H](CCCCN)C(=O)N[C@@H](Cc1c[nH]c3ccccc13)C(=O)N2
notes: also called c[c[Cys-Aib-His-D-Phe-Lys-Trp-Cys]-Aib-His-D-Phe-Lys-Trp]
Turning to B7, in assay [1], the “MC4R cAMP EC50” value came to 0.29 nM. In assay [2], the “MC1R cAMP EC50” value was 11.1 nM. This molecule had a Ki in assay [3] of 0.31 nM.

For orientation: Ki means the equilibrium dissociation constant of an inhibitor or competing ligand from its target. Low values mean a stronger hold on the target, high ones a looser hold on the target.
